Results on 1 molecule are retold here after US20160193294A1 (UNIVERSITY OF QUEENSLAND, published 2016).

The target in experiment [1] is T1, recombinant protein made of the entire extracellular domain of mouse P-selectin fused to the Fc fragment of … (mouse; human, UniProt Q01102 42-709).
T1 construct: extracellular domain; Bought from R&D Systems and adsorbed to polystyrene wells at 3 ug/ml; also called muPsel-IgG1Fc; muP-selectin-IgG1Fc; not shown: Fc fragment of human IgG1
T1 sequence (looked up): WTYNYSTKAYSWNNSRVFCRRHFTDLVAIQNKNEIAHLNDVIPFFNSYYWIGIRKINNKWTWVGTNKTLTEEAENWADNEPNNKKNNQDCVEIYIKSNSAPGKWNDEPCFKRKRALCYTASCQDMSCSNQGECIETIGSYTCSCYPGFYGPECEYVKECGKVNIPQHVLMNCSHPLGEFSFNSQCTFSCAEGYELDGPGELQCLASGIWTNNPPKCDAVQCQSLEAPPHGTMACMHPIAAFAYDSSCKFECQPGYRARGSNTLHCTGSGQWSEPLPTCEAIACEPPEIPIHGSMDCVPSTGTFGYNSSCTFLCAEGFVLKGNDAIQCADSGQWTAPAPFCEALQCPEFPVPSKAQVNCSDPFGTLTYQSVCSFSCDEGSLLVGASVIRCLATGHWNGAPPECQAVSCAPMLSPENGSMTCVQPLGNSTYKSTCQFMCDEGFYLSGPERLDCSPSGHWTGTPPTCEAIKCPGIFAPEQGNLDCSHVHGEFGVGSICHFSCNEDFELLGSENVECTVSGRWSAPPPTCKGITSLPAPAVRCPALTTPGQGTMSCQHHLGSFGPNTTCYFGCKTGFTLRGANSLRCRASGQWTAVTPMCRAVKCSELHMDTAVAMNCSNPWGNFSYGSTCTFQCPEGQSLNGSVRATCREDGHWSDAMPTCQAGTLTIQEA
Briefly: cell adhesion assay: calcein-labelled cells of wild-type and knock-out mice on wells coated with the fusion protein. How it is done: 96-well polystyrene cell culture plates were coated overnight at 4*C with 50 μL per well of phosphate buffered saline containing 3 μg/ml of recombinant proteins made of the entire extracellular domain of mouse E-selectin, P-selectin or VCAM-1/CD106 fused to the Fc fragment of human IgG1 (muEsel-IgG1Fc, muPsel-IgG1Fc, or muVCAM1-IgG1Fc respectively, from R&D Systems)) as previously described 8. Prior to the experiment, plates were flicked to remove excess coating solution and filled with Hepes buffered saline supplemented with 2% bovine serum albumin to block non-specific adhesion to plastic surfaces. […]
Bone marrow cells from CD44 KO, PSGL1 KO and CD44-PSGL1 double KO mice were stained with FITC-conjugated biotinylated rat monoclonal antibodies specific for CD3, CD5. […] Lineage-negative CD117-positive hematopoietic progenitor cells were then sorted by fluorescence activated cell sorting on an Aria cell sorter (BD Biosciences).
Sorted Lineage-negative CD117-positive hematopoietic progenitor cells when then washed and resuspended in cell adhesion buffer and labelled with the intracellular fluorescent dye calcein-AM (Molecular Probes) for 40 minutes at 37° C. […] The fluorescence contained in the remaining adherent cells was measured on a Fluorostar plate fluorometer following exciting at 488 nm using a 530 nm filter.

The target in experiment [2] is T2, recombinant human E-selectin extracellular domain fused with the Fc fragment of human IgM (human, UniProt P16581 22-556).
T2 construct: extracellular domain; Used as COS7 supernatant (pCDM8 plasmid); It was pre-complexed with Cy5-conjugated donkey anti-human IgM F(ab)'2 before the assay; also called E-selectin-IgMFc; selectin-IgMFc; not shown: Fc fragment of human IgM
T2 sequence (looked up): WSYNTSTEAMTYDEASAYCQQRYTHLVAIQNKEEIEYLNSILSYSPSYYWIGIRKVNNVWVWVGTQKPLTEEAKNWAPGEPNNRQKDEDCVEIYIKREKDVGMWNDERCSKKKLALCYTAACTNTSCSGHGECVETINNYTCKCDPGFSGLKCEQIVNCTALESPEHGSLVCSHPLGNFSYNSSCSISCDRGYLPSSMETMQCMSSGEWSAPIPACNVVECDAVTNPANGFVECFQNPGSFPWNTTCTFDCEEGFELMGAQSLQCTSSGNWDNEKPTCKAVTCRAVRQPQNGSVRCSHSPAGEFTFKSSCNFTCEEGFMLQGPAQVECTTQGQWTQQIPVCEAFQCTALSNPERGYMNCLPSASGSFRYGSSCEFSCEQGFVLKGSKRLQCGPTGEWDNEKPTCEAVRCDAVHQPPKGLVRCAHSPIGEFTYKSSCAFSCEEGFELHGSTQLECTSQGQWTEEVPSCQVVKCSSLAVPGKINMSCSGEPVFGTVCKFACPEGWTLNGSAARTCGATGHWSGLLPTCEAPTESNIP
In words: flow cytometry: soluble selectin-IgMFc on bone marrow granulocytes of wild-type and knock-out mice. The text has this:
In a second assay, binding of recombinant E-selectin and P-selectin was directly measured in solution by flow cytometry. For this purpose, recombinant human P-selectin or E-selectin extracellular domains fused with the Fc portion of human IgM were used as selectins required prior clustering to bind to their cellular receptors. As IgM are decameric proteins, each fusion recombinant protein is a decamer or either P-selectin or E-selectin. The clustering resulting from decamerization of selectin enables them to directly interact in solution with their cellular receptors. The inventors therefore measured the binding of recombinant selectin-IgM Fc fusion proteins to bone marrow cells isolated from wild-type, PSGL1−/−, CD44−/− or PSGL1−/−CD44−/− double KO mice. Detection by flow cytometry was performed by pre-complexing the selectin-IgMFc fusion proteins with a Cy5-conjubated donkey anti-human IgM antibody. […] Thus these experiments confirm that PSGL1 and CD44 are necessary and sufficient for E-selectin binding to mature granulocytes, hematopoietic stem cells can bind and adhere to E-selectin via alternative receptors which are not encoded by the PSGL1 and C44 genes.
Prior to the experiment, recombinant selectin-IgMFc fusion proteins were complexed with Cy5-conjugated donkey IgG F(ab)′2 fragments anti-human IgM. […]
(In general: Flow cytometry measures light scatter and fluorescence of single cells or particles in a stream.)

B1: P-selectin glycoprotein ligand-1 (mouse, on bone marrow cells) (receptor, UniProt Q62170 42-397, looked up)
chain: QVVGDDDFEDPDYTYNTDPPELLKNVTNTVAAHPELPTTVVMLERDSTSAGTSERATEKIATTDPTAPGTGGTAVGMLSTDSATQWSLTSVETVQPASTEVETSQPAPMEAETSQPAPMEAETSQPAPMEAETSQPAPMEADTSQPAPMEAETSQPAPNEAETSKPAPTEAETSKPAPTEAETTQLPRIQAVKTLFTTSAATEVPSTEPTTMETASTESNESTIFLGPSVTHLPDSGLKKGLIVTPGNSPAPTLPGSSDLIPVKQCLLIILILASLATIFLVCTVVLAVRLSRKTHMYPVRNYSPTEMICISSLLPEGGDGAPVTANGGLPKVQDLKTEPSGDRDGDDLTLHSFLP
notes: whole, on cells; also called PSGL-1; PSGL1
With B1, the binding result in experiment [1] and in experiment [2] was “binds” throughout.
